The values that follow come from paper PMC4778124, “A continuous sirtuin activity assay without any coupling to enzymatic or chemical reactions” (Scientific Reports, 2016).

Substrate in series [1]: CC(=O)N[C@@H](CCC(=O)O)C(=O)N[C@@H](C)C(=O)N[C@@H](CC(C)C)C(=O)N1CCC[C@H]1C(=O)N[C@@H](CCCCN)C(=O)N[C@@H](CCCCNC(=O)CCCCCNC(=O)CCCCCNC(=O)c1ccccc1N)C(=O)N[C@@H](Cc1ccc(O)c([N+](=O)[O-])c1)C(=O)NCC(=O)NCC(N)=O
The series can be described thus: purified protein, by the assay type. As to conditions: other: Sirt2; measured using MTP fluorescence reader (footnote b); 37.0 °C.

Substrate in series [2]: COc1ccc2c(C[C@H](NC(=O)[C@H](CCCCNC(=O)CCCCCCCCCCNC(=O)c3cc([N+](=O)[O-])ccc3N)NC(=O)[C@H](CCCCN)NC(=O)[C@@H]3CCCN3C(=O)[C@H](CC(C)C)NC(=O)[C@H](C)NC(=O)[C@H](CCC(=O)O)NC(C)=O)C(=O)NCC(=O)NCC(N)=O)cc(=O)oc2c1
As to the kind of experiment: purified protein, by the assay type. As to conditions: other: MTPR (microtiter plate reader); Sirt2; 37.0 °C.

Substrate in series [3]: CC(=O)N[C@@H](CCC(=O)O)C(=O)N[C@@H](C)C(=O)N[C@@H](CC(C)C)C(=O)N1CCC[C@H]1C(=O)N[C@@H](CCCCN)C(=O)N[C@@H](CCCCNC(=O)CCCCCNC(=O)c1ccccc1N)C(=O)N[C@@H](Cc1ccc(O)c([N+](=O)[O-])c1)C(=O)NCC(=O)NCC(N)=O
The series can be described thus: purified protein, by the assay type. As to conditions: other: Sirt2, measured using fluorescence spectrophotometer (footnote a), 0.5 mM NAD+, 37 °C.

Substrate in series [4]: CC(=O)N[C@@H](CCC(=O)O)C(=O)N[C@@H](C)C(=O)N[C@@H](CC(C)C)C(=O)N1CCC[C@H]1C(=O)N[C@@H](CCCCN)C(=O)N[C@@H](CCCCNC(=O)CCCCCCCCCCNC(=O)CN1C(=O)c2cccc3c(N(C)C)ccc(c23)C1=O)C(=O)N[C@@H](Cc1ccc(O)c([N+](=O)[O-])c1)C(=O)NCC(=O)NCC(N)=O
As to the kind of experiment: purified protein, by the assay type. The conditions noted are these: other: MTPR (microtiter plate reader); Sirt2; 37.0 °C.

Substrate in series [5]: CC(=O)N[C@@H](CCC(=O)O)C(=O)N[C@@H](C)C(=O)N[C@@H](CC(C)C)C(=O)N1CCC[C@H]1C(=O)N[C@@H](CCCCN)C(=O)N[C@@H](CCCCNC(=O)CCCCCCCNC(=O)c1ccccc1N)C(=O)N[C@@H](Cc1ccc(O)c([N+](=O)[O-])c1)C(=O)NCC(=O)NCC(N)=O
The series can be described thus: purified protein, by the assay type. As to conditions: other: Sirt2; measured using MTP fluorescence reader (footnote b); 37.0 °C.

Substrate in series [6]: CC(=O)N[C@@H](CCC(=O)O)C(=O)N[C@@H](C)C(=O)N[C@@H](CC(C)C)C(=O)N1CCC[C@H]1C(=O)N[C@@H](CCCCN)C(=O)N[C@@H](CCCCNC(=O)CCCCCCCCCCNC(=O)c1ccccc1N)C(=O)N[C@@H](Cc1ccc(O)c([N+](=O)[O-])c1)C(=O)NCC(=O)NCC(N)=O
As to the kind of experiment: purified protein, by the assay type. The conditions noted are these: other: Sirt2, measured using fluorescence spectrophotometer (footnote a), 0.5 mM NAD+, 37 °C.

Substrate in series [7]: CC(=O)N[C@@H](CCC(=O)O)C(=O)N[C@@H](C)C(=O)N[C@@H](CC(C)C)C(=O)N1CCC[C@H]1C(=O)N[C@@H](CCCCN)C(=O)N[C@@H](CCCCNC(=O)CCCCCNC(=O)c1ccccc1N)C(=O)N[C@@H](Cc1ccc(O)c([N+](=O)[O-])c1)C(=O)NCC(=O)NCC(N)=O
The series can be described thus: HPLC based activity assay. It is filed as biochemical, human. The conditions noted are these: other: HPLC; Sirt2; pH 7.8; 37.0 °C. On the procedure:
(§1) For the determination of kinetic constants for all sirtuin mediated reactions solutions containing 20 mM TRIS/HCl pH 7.8, 150 mM NaCl, 5 mM MgCl2 (assay-buffer), 500 μM NAD^+ and varying substrate concentrations (0.5–100 μM) were used. Deacylation was started by adding human sirtuin to reach a final concentration of 0.01–0.5 μM. Enzyme-catalyzed reaction was stopped using TFA (1% final concentration) after 1 min to 180 min of incubation at 37 °C depending on substrate reactivity. The cleavage rate of the different TNFα peptide derivatives was analyzed using analytical reversed phase HPLC. 40 to 80 μl of compounds or reaction solutions were injected and separated using a linear gradient from 5% to 95% solvent B within 6min. The product and substrate peaks were quantified using absorbance at 220 nm or 365 nm (absorption of 3-Nitrotyrosyl moiety). The peak areas were integrated and converted to initial velocity rates calculated from the ratio of product area to total peak area. Linear regression of conversions plotted against time yielded reaction rates in μM/min (relative conversion below 20% of substrate). Non-linear regression according to Michaelis-Menten of the reaction rates at different substrate concentrations yielded KM- and kcat-values using the program SigmaPlot 8 (Systat Software, San Jose, USA). All measurements were done in duplicates.
(§2) The reactions were performed with 0.1- 0.5 µM sirtuin, 500 µM NAD^+ and 50µM 13/16. All reactions were done in duplicates (n=2).

Substrate in series [8]: CCCCCCCCCCCCCC(=O)NCCCC[C@H](NC(=O)[C@H](CCCCN)NC(=O)[C@@H]1CCCN1C(=O)[C@H](CC(C)C)NC(=O)[C@H](C)NC(=O)[C@H](CCC(=O)O)NC(C)=O)C(=O)N[C@H](C(=O)NCC(=O)NCC(N)=O)[C@@H](C)O
The series can be described thus: HPLC based activity assay. The format is biochemical, human. As to conditions: other: HPLC; Sirt2; pH 7.8; 37.0 °C. On the procedure:
as §1, §2

Substrate in series [9]: CC(=O)N[C@@H](CCC(=O)O)C(=O)N[C@@H](C)C(=O)N[C@@H](CC(C)C)C(=O)N1CCC[C@H]1C(=O)N[C@@H](CCCCN)C(=O)N[C@@H](CCCCNC(=O)CCCCCCCCCCNC(=O)c1ccccc1N)C(=O)N[C@@H](Cc1ccc(O)c([N+](=O)[O-])c1)C(=O)NCC(=O)NCC(N)=O
The series can be described thus: HPLC based activity assay. It is filed as biochemical, human. As to conditions: other: HPLC; Sirt2; pH 7.8; 37.0 °C. On the procedure: as §1, §2

As usually defined, the Km is the substrate concentration at which the rate is half of its maximum. Broadly, the kcat/Km is the second-order rate constant that governs catalysis at low substrate concentration.

Values joined by “and” are separate entries in the source; they are usually repeats but may differ in a detail not shown here. Equal values may be shown once.

B1: Sirt2 (Homo sapiens) (protein)
chain: MAEPDPSHPLETQAGKVQEAQDSDSDSEGGAAGGEADMDFLRNLFSQTLSLGSQKERLLDELTLEGVARYMQSERCRRVICLVGAGISTSAGIPDFRSPSTGLYDNLEKYHLPYPEAIFEISYFKKHPEPFFALAKELYPGQFKPTICHYFMRLLKDKGLLLRCYTQNIDTLERIAGLEQEDLVEAHGTFYTSHCVSASCRHEYPLSWMKEKIFSEVTPKCEDCQSLVKPDIVFFGESLPARFFSCMQSDFLKVDLLLVMGTSLQVQPFASLISKAPLSTPRLLINKEKAGQSDPFLGMIMGLGGGMDFDSKKAYRDVAWLGECDQGCLALAELLGWKKELEDLVRREHASIDAQSGAGVPNPSTSASPKKSPPPAKDEARTTEREKPQ
notes: made in house
Consider B1, for which the Km is 15.3 ± 2.7 µM in series [1]; 0.8 ± 0.1 µM in series [2]; 17.7 ± 1.5 µM in series [3]; 7.5 ± 1.5 µM in series [4]; 1.2 ± 0.1 µM in [5]; 0.1 ± 0.02 µM and 0.12 ± 0.02 µM in series [6]. Besides, the figures for the Km in series [7], in series [8] and in series [9] were 26.8 ± 2.7 µM, 0.7 ± 0.1 µM and 0.3 ± 0.04 µM, respectively. Further, the kcat/Km in series [1] is 156 M⁻¹ s⁻¹; in series [2] it was 1.25∙10^5 M^-1s^-1; in series [4], 3.42∙10^2 M^-1s^-1; in series [5], 38600 M⁻¹ s⁻¹; in [7], 1.46∙10^2 M^-1s^-1; in series [8] it was 5.30∙10^4 M^-1s^-1. Besides, the kcat/Km in [9] is 1.18∙10^5 M^-1s^-1. In addition, the kcat in series [2] is 9.6∙10^-2 ± 0.5∙10^-2 s^-1; in series [4] it was 2.6∙10^-3 ± 0.2∙10^-3 s^-1; in series [7] it was 3.9∙10^-3 ± 0.2∙10^-3 s^-1; in [8], 3.7∙10^-2 ± 0.1∙10^-2 s^-1; in series [9], 3.9∙10^-2 ± 0.1∙10^-2 s^-1.
